Source: the DeepSol protein solubility set

Experiment: soluble on expression in E. coli; label from the status in PepcDB or PDB records

| Sequence | soluble on expression in E. coli |
| --- | --- |
| MSNSKPVNYLTLKCLLKNMDSGMRLQLFVMFPSIQYLEKLFPLHVKYLTIKSDHITVNRTTFQLKICNKYNNFHGGYKFDFDQYGRLDRGEIEQDPDESIIDVRDGFLSKKGIPECEMETARLVHNLTLQKSQRYSTRIWESHGTILKKLSYYVPENNFIRLKIGKRVEVLEYQRKIHEAMKYLLGRLFGGRSLEANQFSIGCDTVLRVPSTLKFRIENLYTPSFKIANTLDVVNQIVDNSSLPLSSLKYSFENHIYHHPHSLVRTVKMLKLEVEMVPDYISGIVSNLQMVDEKRAHIVFLGDCTSSNFLKILAHWILEFHRDIGTYHTYQLSEAVVDEVMIFVRTNYGVMIEAGLPQTTDQITLNINDTSSLVISKFQQKEKWIFGLKMEH | not soluble |
| GPGSMTDDSSGLQSELSHALEGEGNLSVDAMLSQSLVKADLQTPSARILLKKIERPPGRFDLLTNSLVYSWQTTAAQARKVTGPMREWASELKYRTGVHLEVEPTNPTRLGVPEEEGGYAAADDVELTVYLFGSERGIFNCRQLMETALDQNPAYVRLAVFRRRPGKGVSTSTAAVPRPQEDVEWLLLRRINRDLRPPDIPPISLKTPGKWTLLYEQYKEAAIRTLWEETGITVEAGNVYPTAVLCQDNPIYYWRVPVHYFLAEVPYDVQVLGPQVGLNTYMHHWDSSLLRQSPDPIDRAWAQLADPETGCAWMKQPMIDELQRPLRGENYMATRYTPPPYSQLNHALGLAVPAEAAGEASAADSALSAATTAEGGEAQDDVKEDDAAAPSADADASSSNDKPSS | soluble |
| GSPIPHHDEKTWNVGSSNRNKAENLLRGKRDGTFLVRESSKQGCYACSVVVDGEVKHCVINKTATGYGFAEPYNLYSSLKELVLHYQHTSLVQHNDSLNVTLAYPVYAQQRR | soluble |
| MSLSADFSQPLADRLRPRTLDEYIGQLHLIEPGRPLYESIRRGRLHSMIFWGPPGTGKTTLARLVARHADAEFLPVSAVLSGVKEIREALARAVQFKAAGRRAILFVDEVHRFNKSQQDAFLAHVEDGTVSFIGATTENPSFEVNSALLSRARVYVLKALTEADLLGVIDRALSDAERGLGGRGLNMSDPVRMAYVRAADGDARRLLNLLEITADLLDAGQTVVSEEVARQVLASGTTRRFDKQGEEFYNQISALHKSVRGSSPDAALYWLCRMLDGGCDPLYLARRLVRIASEDIGNADPKALELCLNAWNAQERLGSPEGELALAQAVVYLAVAPKSNAVYEAYKAARADAARSGSLPVPLHLRNAPTGLMKGLDYGKGYRYAHDYPDAYVPGENYFPEGLERREYYRPVNRGMEIKIAEKLERLKALDKEADEGHHHHHH | not soluble |
| MDLKSTKKTWKIPSFNQMWGKITSHIGVWFGLEEAERPMRASCSLSMIHHPQLTAVRSSKSSENLHRITTMSPQRIQDVDGSPSTRKPSSSIFTLRRSRNKEKKYKNNGGGGSTKSPISKNGTNEMTQSWHSNHVNGASSGSGSGSTPEHHNKNIFSFLSRQSRSRSNNPSETMSTVPLNKNSPSMPPPPSSNTVADFTHLRRRRPRSAHYDPNTITLPAKEEVTPQDVNDLYKRIDKLGEGSYATVYKCESKLDGSIVALKEIKLQFQEGLPFTAIREASLLRNLRHANIVSLHDIFYQHHQLTFVFEYMKMDLSKYLEQNVYGLDSIDIKLLLFQLLRGLDFCHRKKILHRDLKPQNLLLDEDGVLKLADFGLARAKSVPSRTYSHEVVTLWYRPPDVLMGSTDYSTSLDMWGVGCIFAEICTGAALFPGSKDSHYPGTKDQLDMIFSIRGTPDEKKWPEVKTLPGYTPELFPRYRELSFIAVNPMFTKILKTGQELLGMLLQLRPESRVSAASAMLHPYFASFPREVHLLAPSQSIFRLKELKDLRSL | not soluble |
| MVEELFYKKILKNLFSDPVQITLWNGETIQYGEGEPQFHVTFHKPLSKKEIAKDPSIAFGEAYMNGDLEIEGNLEKAIQSIYKRQDSFLGDSKLQYFKSKWNFSKQKNKDDIAHHYDIGNDFYKLWLDETMTYSCAYFQNEQDSLTTAQHNKVNHILKKLNLQKGDTLLDIGCGWGELITAAAKQYGVKAMGVTLSEEQYAKASERIKQEGLTDLVEVSLLDYRDIKNQKFDKIVSVGMIEHVGKDNITQYFETVNTLLNDGGISLLHCITSPANGGATNGWIEKYIFPGGYVPAVNELITNMTNEQFFIVDVESLRRHYGKTLQHWARNFENVMEEVRKTKDERFIRMWRLYLNACAASFFTGNIDLHQFVFTKGINDTIPMTRSYMYE | not soluble |
| MNNPAMTIKGEQAKKQLIAAALAQFGEYGMNATTREIAAQAGQNIAAITYYFGSKEDLYLACAQWIADFIGEQFRPHAEEAERLFAQPQPDRAAIRELILRACRNMIKLLTQDDTVNLSKFISREQLSPTAAYHLVHEQVISPLHSHLTRLIAAWTGCDANDTRMILHTHALIGEILAFRLGKETILLRTGWTAFDEEKTELINQTVTCHIDLILQGLSQRSL | soluble |
| MVRGFYLRFGEGVSEEANRRALALAEALLRAPPPGLLDAVPAYGVLYLEYDPRRLSRGRLLRLLKGLPQERAEEGRVVEIPVRYDGEDLPEVASRLGLSLEAVKALHQKPLYRVYALGFTPGFPFLAEVEPALRLPRKPHPRPRVPAHAVAVAGVQTGIYPLPSPGGWNLLGTSLVAVYDPHRETPFLLRPGDRVRFLEAEGPTPPEPRPLELLPEEPRLPALLVEEPGLMDLVVDGGRFLGGHLGLARSGPLDAPSARLANRLVGNGAGAPLLEFAYKGPVLTALRDLVAAFAGYGFVALLEGEEIPPGQSFLWPRGKTLRFRPRGPGVRGYLAVAGGLEVRPFLGSASPDLRGRIGRPLWAGDVLGLEALRPVRPGRAFPQRPLPEAFRLRLLPGPQFAGEAFRALCSGPFRVARADRVGVELLGPEVPGGEGLSEPTPLGGVQVPPSGRPLVLLADKGSLGGYAKPALVDPRDLWLLGQARPGVEIHFTSG | soluble |
| MGSDKIHHHHHHMFNLKPELVARLERVLTSVEMLLPRPTAPVDWSVCHAASWRRHSFSGYLEPVRQTDTVTLPELLGIEKQKEVMTNNTLQFLRGLPANNALLWGSRGTGKSSLVKALLNEYAAQGLRIVQVEKEDLIYLSEIFAAVENEPYRFILLCDDLSFEVGELSYKMLKSALDGSVYSAPENVLIYVTSNRRHLIPEYESDNVGWKYVNGELQQSEAMEEKISLSDRFGLWVAFHVFSQDRYLEAVRLCIEREARQRRVEIPWAKEIEREAIQWSHDKSKRCGRTAFQFSRHWVGRYLLGGR | not soluble |
| MVSETSEETLYCIGCGAAIQTTDPKAAGYTPNSALQKSLASEAQDLYCQRCFRLRHYNEIVPVGLTDDDFRHLLATIRDANALVVYVVDIFDLNGSIIPGLQRFVGDNPVLLVGNKEDVLPRQLRRTKLREWMNQQVRAQGIKPVDVALTSAKKGHSIDELLAMIEKYRRGRDVYVVGVTNVGKSTLINRIIANNTGLKDLITTSRFPGTTLDKIEIPLDDGHMMVDTPGIIHPEQMAHVLSGDDLKLVSPQREIRPKGFQLGNGQTLFLGGVARLDIVDTLKATGTVYVDNNLPLHRTRTENADNFYTKHVGELITPPTGDAVADFPPLVRHEFKVTEISDIVFEGLGWVTVAADTRVAAWAPKGVAVLTRPAMINKRLEHHHHHH | soluble |
| MQQALLDHLRVVTEEEQRILDGVAEVDKDLYTSGKDFTVDSAKMLSEGKLIAVRTHTRFVHFPSHRHNYIEVLYVCQGQLTNIIGGKEVVIHAGELLFLNQYTRHEILPAGEEDIAINFMILPEFFDVAYTMAGNNNVLADFLVNVLRQDEERGEYLHFKVAEVLQIQNLLENMIYSLVTGKGDQNRINQTTMGLIFLYLLESVQYAEMRLPNQYENMIIMTTLDYIEQQYKTATLTELCEKLHLPMHMLSKMIRKNTGFNFKELLQRKRLNKAVELMCETDLPISDIIAAVGYENGSYFHRVFKERYHTTPRAFRVANGKEERVRL | not soluble |
| MKVLILTVGTTREPLEVALAEHAPQGVVFLASQASHPVAAELVRDYGGSFRHHTLLLEDAESLMEAYQKALLALRKALEWEATAIVADLTGGTKPMAAGLVLALTGRGVVFSYVGGEARDPGTGRVLAGKERLRLLEDPTARLGLKEWAGFTRAWNALNLGMALAELESLLRRDLSPSEARFYGAMKGVVEGLMEWDRFRHREAWERLSVHLPLALAVAEAWGHGAKVRVLKGLEALLPHLKGIVEAGPKPTFLLLQDLLANAERRAALGRFDDALARLYRALELAVEADVHERLGFSLKDPRTWPEGFPEGLRERILKPRGLMDLLDAAFDLDLAFGEQGTLAQRLYGEKNRLQALLQRRHESILAHGTRPVGEEDYTALRDFLMRLDERLRPLPPWPRF | soluble |
| MGSDKIHHHHHHMTGHYSKTEHQYILLTSESASFDHYSVYRDPQLPQIFSHNFVQLHDTFPLERLLNFLPSVPKLLDANYLHLKASPQHVFPLGLKQSLVKSGFVVEDELLYDMKLSDWKGQMGHPLTAWGTAKSLSDGSSIMKIYDSIYIGEAIAEQKLKRKYPFYEADIIILVVCYSDQAQKVPIGCGELFIDHQEKTAKIEEVAILDQFQRKGYGSILVKEMLSIAKSLGMEAAYLVAASTDGATQFYEKLTFKKYERVHTVFHYFLT | not soluble |
| EQIDRWNQVSEYIERLNVLEDNGSNTLIIASGIAYPYVKEITEEEGLNANIFRLVTPVPIPEKSILDSMTRVKKVLVVEENDPVVELQLSQLMVKNGIMKELHGKDLVSPIGELTLEKVRGAIMGFFGKEYVRSYPDDVSLRTRPPALCPGCPHRSSFYDIKKGLSKVSMQKAFFSGDIGCYTLGALPPFNEQDSATNMGSSVGISNGVFRATGQIPVSIIGDSTFFHSGLQGVANAVYNGTPEIIIVLDNRSTAMTGQQPSPSTHISIENVARAMGIDFVDTFDPFDVKEGSDAVQKAAEYVKENKKPALIVAKRACALEVLEKVGDYTMKAEVDLEKCTGCSICYDFFTCPSILPLSNKKAFIDDSCIGCGACVEVCPFNAIK | not soluble |
| MAHHHHHHMLESFEFDQERKEALNTVAELIASTIEGAESQDVHDVLSSSLHLPHNWQEIVQKRAEQRRKLSATFTLFCEETIATPSTDGNAALDISEAPATCFLPELRPKTMPPVTTSATRGFECPSCGNHWDVVDARKSLRNSNTSSAVRELSNADVGFCPVCEDI | not soluble |
| MSTSCFPDVPLELTTRHPRPLQACPERHSQSTHDSLGIWVKRREEKPMERMSKDYDIVQIPRDVGYSDLPRKMEVGKPFEINGSVYVCEKRGGEIMKICSEDSGRTGVPVLNKGFYVVRRM | not soluble |
| MSLTEFPGIVKEYEAITRYCGFNSIEAGKTMGLSPYGEPNPEIPPMFVNGFGNRNLFKPNYPNGAYVIEDRYKIIRDDYISHNGEVGTGEYTQVQKDLAYAIQKESEDQMCALIQKAHEMTGEKNIVICGGYGLNCVANYKFKQRFPNLNIYVEPISHDGGTSMGGAYHVYYNDYVKTGKESRKVEPPKTIYYGPQYDPDTYLNYIHEYPSAKVTDASYDSVARLIREGNIVTIFQGRSEAGPRALGNRSILFDPTIKDGKDIVNSVKHREFFRPFACSILADKVHDWFDLAGMDDSPSMMYAVDALPGVAEKIPSVIHVDNTCRIQTVTKEQNEHYYNLISAFEKLSNTPILFNTSFNLGGDPLVEDIDDALDTLSTSDINYMYLPEIQKLVELKTREMQDTRQQPINEGHHHHHH | soluble |
| AHHHHHHGSIVPALIGSLPRPIGLAKKLEQYYIGRLDERKLEEAYREYTRRAFEKLRDAKIKVITDGLYRWDDIFNPFIRFIDGIEVNGLFKFYENNFFYRSPVVRGEIALKENPIPEWISIAQEIKEDVYPEATLKAVLPGPVTLAYHSINEYYKTLTDLAEAYAQVIGELIKELDVKIVELQEPSLAAEISEATKNIEDRVDKEVAKNIIEDLGRIKKLWVVTYFGTPQVLPEGVILNVDLIEGSVPEEYSGEIGLGIVDARTTKMERADRLRDKIRKYLAKFETIYVTPNTLLDFLPESVAWKKLRLLGRLGGE | not soluble |
| MGSDKIHHHHHHCPVNWVEFGGSCYWFSRDGLTWAEADQYCQLENAHLLVINSREEQDFVVKHRSQFHIWIGLTDRDGSWKWVDGTDYRSNYRNWAFTQPDNWQGHEQGGGEDCAEILSDGHWNDNFCQQVNRWVCEKRR | not soluble |
